Values joined by “and” are separate entries in the source; they are usually repeats but may differ in a detail not shown here. Equal entries are not always repeated.
Key:
[1] = target: T1, EGFR-pY992 (SEQ ID NO: 5) (Homo sapiens, UniProt P00533); test: Single-well 4-spot assay for multiple peptide-protein interactions; type: binding; settings: 4-spot plate
T1 construct: phosphotyrosine at Tyr992 (chemical modification); purchased New England Peptide, Fitchburg Mass; host or cells: chemical synthesis
Excerpt: Four phosphopeptides and their cognate binding proteins (Table 14) were selected for an integrated assay of multiple peptide-protein interaction in 4-spot Multi-Array plates. The IkBa-24pp peptide and its binding protein, βTRCP, are described in Example 10. […] These phosphotyrosine containing peptides are recognized by different adaptor or effecter proteins of the receptor tyrosine kinase signaling pathway.
These four peptides were coupled to BSA carrier protein through cystine residue. After purification on PD-10 gel filtration columns, the peptide-BSA conjugates were then deposited on the assay domains of a 4-spot multi-array IPR plate (i.e., in one of the four exposed regions of working electrode defined by the dielectric layer) with an automated micro-dispensing system (Bio-Dot Dispenser, Bio-Dot, Irvine Calif.). […] These plates are dried then used or stored under desiccated conditions. A few hours prior to usage the plates were rehydrated and blocked with 3% BSA in PBS. […] The in vitro translated and biotin-labeled proteins were then assayed in the 4-spot multi-array IPR plates under conditions described in Example 10.

[2] = target: T2, IkB peptide (SEQ ID NO: 1) (Homo sapiens, UniProt P25963); test: 96-well screen for phosphopeptide binding proteins, 7-spot IPR plates; settings: two steps of normalization, top 9 clones
T2 construct: two phosphoserines in the DSGLDS motif (chemical modification); purchased New England Peptide, Fitchburg Mass; host or cells: chemical synthesis
T2 sequence (P25963 with tags, fused parts or gaps limits assumed): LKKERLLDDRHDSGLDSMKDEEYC
Experimental: (§1) A screen was conducted using 7-spot IPR plates. The 7 spot NPT IPR plates are described in more detail in copending Provisional Application No. 60/301,932 (entitled “Assay Plates, Reader Systems and Methods for Luminescence Test Measurements”, filed on Jun. 29, 2001, hereby incorporated by reference) and particularly in the description of Plate Type D in Example 6.1 (NPT IPR plate) and U.S. application Ser. Nos. 10/185,274 and 10/185,363, filed Jun. 28, 2002, each hereby incorporated by reference. These plates consist of a 96 wells with 7 zones (spots) for the immobilization of proteins or other reagents. Each spot was coated with BSA conjugated to either a single phosphopeptide or multiple phosphopeptides.
(§2) The plates were prepared essentially as described in example 12. The seven spots supported, respectively, the following BSA conjugates IkB, pY992, pY1068, pY1148, Myc, “A”, and “6-P”. “A” refers to a conjugate of BSA with multiple peptides: IkB, pY1148, Myc which were then coupled to BSA. “6-P” refers to a conjugate of BSA with the following multiple peptides: IkB, pY1148, pY992, pY1068, Smad3C.
(§3) For the assay, 4 ul from TnT reaction product described above were added to the coated plate containing 50 μl of binding buffer supplemented with 50 ng/well Ru-Streptavidin. The binding reaction was allowed to proceed at room temperature for 1 hour with constant shaking. […] The ECL signals were measured using an imaging plate reader (IPR). The raw data from the IPR reader was then normalized using two steps of normalization. The first round was based on the 50 lowest values for a given specific spot. These 50 lowest values were averaged and divided into each signal for that spot to generate a signal value which could be compared readily between the peptide-conjugate spots. This was then followed by a second round of normalization using the lowest normalized value for a spot within a well to divide the signals from the other spots. This method provides a means to reduce the signals from proteins which bound non specifically to all the spots within a well. […]

[3] = target: T3, Myc peptide (SEQ ID NO: 4) (Homo sapiens, UniProt P01106); test: as above; settings: two steps of normalization; top 9 clones
T3 construct: phosphothreonine (T58) and phosphoserine (S62) (chemical modification); purchased New England Peptide, Fitchburg Mass; host or cells: chemical synthesis
T3 sequence (P01106 with tags, fused parts or gaps limits assumed): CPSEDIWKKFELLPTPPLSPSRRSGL
Experimental: as §1, §2, §3

| Substance | ECL signal, spot 4 EGFR-pY992 [1] | normalized ECL signal, IkBa spot [2] | normalized ECL signal, IkBa spot ([2]; βTRCP positive control) | normalized ECL signal, Myc spot [3] |
| --- | --- | --- | --- | --- |
| 3872466: IMAGE clone protein: mCBP [compound 3872466] | 498 |  |  |  |
| 3491843: IMAGE clone protein: βTRCP1 [compound 3491843] |  | 12 | 23 | 4 and 8 |
